According to publication PMC6135763 (Nature Communications, 2018):

Columns and labels:
[1] = molecular target: T1, Importin α3ΔIBB (residues 64–521) (human, UniProt O00629 64-521); experiment: ELISA; conditions: both partners purified
T1 construct: also called Impα3; KPNA4
T1 sequence (looked up): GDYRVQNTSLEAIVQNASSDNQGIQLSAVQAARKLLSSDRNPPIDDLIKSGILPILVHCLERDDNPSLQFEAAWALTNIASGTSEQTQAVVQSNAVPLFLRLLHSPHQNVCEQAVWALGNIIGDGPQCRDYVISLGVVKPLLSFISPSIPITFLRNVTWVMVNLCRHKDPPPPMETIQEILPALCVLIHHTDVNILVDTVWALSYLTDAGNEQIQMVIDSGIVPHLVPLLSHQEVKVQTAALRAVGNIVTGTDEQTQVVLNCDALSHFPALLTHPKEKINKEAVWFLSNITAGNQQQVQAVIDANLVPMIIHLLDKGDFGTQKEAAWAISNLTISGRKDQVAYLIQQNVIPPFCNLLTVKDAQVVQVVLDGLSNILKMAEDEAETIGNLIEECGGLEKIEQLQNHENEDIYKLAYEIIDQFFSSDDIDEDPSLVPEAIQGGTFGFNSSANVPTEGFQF

[2] = molecular target: Importin α7ΔIBB (residues 73–536) (human, UniProt O60684 73-536); experiment: ELISA; conditions: both partners purified
Importin α7ΔIBB (residues 73–536), sequence (O60684 73-536, stated change not applied): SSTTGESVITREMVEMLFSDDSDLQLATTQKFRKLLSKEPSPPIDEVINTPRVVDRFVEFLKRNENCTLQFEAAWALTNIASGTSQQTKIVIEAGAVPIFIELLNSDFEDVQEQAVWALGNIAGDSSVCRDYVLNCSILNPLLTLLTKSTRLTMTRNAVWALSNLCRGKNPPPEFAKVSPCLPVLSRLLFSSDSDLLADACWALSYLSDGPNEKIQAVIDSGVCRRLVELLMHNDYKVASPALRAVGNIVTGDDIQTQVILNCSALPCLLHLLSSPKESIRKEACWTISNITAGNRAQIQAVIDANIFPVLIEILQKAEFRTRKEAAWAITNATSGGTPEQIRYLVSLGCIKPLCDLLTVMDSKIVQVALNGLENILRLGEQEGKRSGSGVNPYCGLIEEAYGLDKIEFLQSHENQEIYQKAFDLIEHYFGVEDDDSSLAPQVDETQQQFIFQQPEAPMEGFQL

B1: GST-NiV W (C-terminal NLS domain of Nipah virus W protein, residues 411–450, GST fusion) (domain or fragment)
chain: RNIHLLGRKTCLGRRVVQPGMFEDHPPTKKARVSMRRMSN
Kd [1]: 14.4 nM | Kd [2]: 1100 nM

B2: GST-HeV W (C-terminal NLS domain of Hendra virus W protein, residues 409–448, GST fusion) (domain or fragment)
chain: RSLNMLGRKTCLGRRVVQPGMFADYPPTKKARVLLRRMSN
Kd [1]: 19.9 nM | Kd [2]: 1500 nM
